In US7678386B2, “Liposomes coated with selected antibodies that bind to aminophospholipids” (Board of Regents the University of Texas, priority 2002, dated 2010):
“And” between values parts separate entries of the source, which are not always exact repeats. Equal entries are not always repeated.

Assay: Monoclonal single chain antibody ELISA on PS plate
Format: binding
Settings: supernatants of individual subclones, 10% human serum
Description: Individual HB2151 colonies from the plates (after 4 rounds of selection) were inoculated into 500 μl 2×TY containing 100 μg/ml ampicillin and 1% glucose in 96-well plates and grown with shaking (300 rpm.) overnight at 37° C. 5 μl from this plate were transferred to a second 96-well plate containing 500 μl 2×TY containing 100 μg/ml ampicillin per well and grown shaking at 37° C. for 3 hr (OD600=0.9).
To each well was added 50 μl 2×TY containing 100 μg/ml ampicillin, 10 mM IPTG (final concentration is 1 mM), which was grown with shaking overnight at 30° C. It was centrifuged at 1,800 g for 10 min and 100 μl of the supernatant used in the following ELISA.
96 well plates (DYNEX IMMULON®1B) were coated with PS dissolved in ethanol at a concentration of 10 μg/ml (P6641 10 mg/ml solvent was Chloroform:MeOH 95:5). 10 μg/ml PC was coated in the same way. These plates were evaporated at 4° C. in the cold room. 250 μl 2.5% casein was added to each well, and the plates were covered and blocked at 37° C. for 1 hour.
Wells were rinsed 3 times with PBS, 100 μl/well 10% human serum and 100 μl/well supernatant containing soluble scFv was added and incubated for 60 min at 37° C. The solution was discarded and washed 6 times with PBS. […] 100 μl 0.18 M H2SO4 was added to stop the reaction and read at O.D. 490.

B1: 3A2: scFv anti-PS clone; sequences SEQ ID NO:5 and SEQ ID NO:6 (protein)
scFv: AQPAMAEVQLVESGGGVVQPGRSLRLSCAASGFTFSSYGMHWVRQAPGKGLEWVAVISYDGSNKYYADSVKGRFTISRDNSKNTLYLQMNSLRAEDTAVYYCARLHAQTWGQGTLVTVSSGGGGSGGGGSGGSALQSVLTQPPSVSAAPGQKVTISCSGSSSDMGNYAVSWYQQLPGTAPKLLIYENNKRPSGIPDRFSGSKSGTSATLGITGLWPEDEADYYCLAWDTSPRNVFGGGTKLTVLGAAAHHHHHHGAAEQKL
Question: Which “ELISA on PS Plate (O.D. 490)” value does the source give for B1 here?
Answer: 0.126 and 0.118 (2×) and 0.131 (2×) and 0.125 and 0.115 and 0.127 and 0.150 and 0.117 and 0.112 and 0.121 and 0.123 and 0.114 and 0.116 and 0.132
